The source of these data is publication PMC7431413.

For orientation: stoichiometry N means a count of units in the complex or per binding partner.

In the experiment the target is recombinant tyrosine phosphorylated STAT3 dimer (pY705 STAT3-CF) (human) (UniProt P40763). As to the kind of experiment: SEC; purified STAT3-CF co-expressed with the ABL1 kinase domain; immunoblot for pY705. Background: In gel filtration, larger molecules generally elute earlier.

For “recombinant tyrosine phosphorylated STAT3 dimer (pY705 STAT3-CF) (from UniProt P40763 127-722) (domain or fragment)”, the stoichiometry N came to 2.
